Measured values published in patent publication US6464983.
pKd: −log10 of the molar value.

What was measured:
[1] = target: high affinity CTGF receptors on mouse fibroblasts (NTH3T3) (mouse); assay: 125I-rhCTGF binding to cells, competition binding assay
[2] = target: low affinity CTGF receptors on mouse fibroblasts (NTH3T3) (mouse); assay: as above
[3] = target: high affinity CTGF receptors on NRK-49F rat fibroblasts (rat); assay: 125I-rhCTGF binding to cell monolayers, Scatchard / competition with unlabeled CTGF
[4] = target: high affinity CTGF receptors on primary rat articular chondrocytes (rat); assay: as above
[5] = target: low affinity CTGF receptors on NRK-49F rat fibroblasts (rat); assay: as above
[6] = target: low affinity CTGF receptors on primary rat articular chondrocytes (rat); assay: as above

pKd [1]: 11.00 to 11.30
Sites/cell [1]: 480 sites/cell
pKd [2]: 8.74
Sites/cell [2]: 102000 sites/cell
pKd [3]: 10.64 to 10.89
pKd [4]: 10.68
pKd [5]: 8.66 to 8.96
pKd [6]: 9.00
Sites/cell [6]: 150000 sites/cell
Substance: iodinated recombinant human Connective Tissue Growth Factor (rhCTGF) (from UniProt P29279 27-349) (ligand)
